Test results as given in patent US20200207850A1 (MacroGenics, published 2020).

What was measured:
[1] = target: T1, CD8 on human T cells (PBMC) (human, UniProt P01732 22-235); experiment: flow cytometry, binding to human CD5+/CD4- cells (bear CD8 and CD3) (MFI)
T1 construct: whole, on cells; The CD8+ (CD5+ CD4-) cells also carry CD3; also called CD5+ CD4- gated PBMC; CD8+ T cells

[2] = target: T1, CD8 on human T cells (PBMC); experiment: flow cytometry on human PBMC, CD5+/CD4- gated cells (bear CD8 and CD3), detection anti-human Fc (MFI)
[3] = target: T1, CD8 on human T cells (PBMC); experiment: flow cytometry on human PBMC, CD5+/CD4- gated cells (bear CD8 and CD3), detection PE anti-human Fc (MFI)
Procedure: 50 μL (4×10⁶ cells/mL) of well-mixed cells in FACS buffer containing 0.01% sodium azide were then added into corresponding wells and mixed thoroughly using a pipette. The plate was incubated in the dark for about 45 minutes at 2-8° C. At the end of the incubation, the cells were washed twice by adding 300 μL of FACS buffer to each well, centrifuging the plate at 1,200 rpm for 5 minutes, and discarding the supernatant. The cell pellets were re-suspended in 100 μL mixture of PE-conjugated goat anti-Human Fcγ 1:500 diluted, CD5-APC and CD4-PerCP5.5 in FACS buffer containing 0.01% sodium azide, and incubated in the dark for about 45 minutes at 2-8° C. At the end of the incubation, the cells were washed, re-suspended with FACS buffer, and analyzed with a BD Caliber flow cytometer. Cells were gated to CD5⁺ CD4⁺ (FIG. 9A) or CD5⁺ CD4⁻ (FIG. 9B).

[4] = target: T2, B7-H3 on A498 and JIMT-1 target cells (UniProt Q5ZPR3 29-534, limits assumed); experiment: cell-based or functional assay
T2 sequence (looked up): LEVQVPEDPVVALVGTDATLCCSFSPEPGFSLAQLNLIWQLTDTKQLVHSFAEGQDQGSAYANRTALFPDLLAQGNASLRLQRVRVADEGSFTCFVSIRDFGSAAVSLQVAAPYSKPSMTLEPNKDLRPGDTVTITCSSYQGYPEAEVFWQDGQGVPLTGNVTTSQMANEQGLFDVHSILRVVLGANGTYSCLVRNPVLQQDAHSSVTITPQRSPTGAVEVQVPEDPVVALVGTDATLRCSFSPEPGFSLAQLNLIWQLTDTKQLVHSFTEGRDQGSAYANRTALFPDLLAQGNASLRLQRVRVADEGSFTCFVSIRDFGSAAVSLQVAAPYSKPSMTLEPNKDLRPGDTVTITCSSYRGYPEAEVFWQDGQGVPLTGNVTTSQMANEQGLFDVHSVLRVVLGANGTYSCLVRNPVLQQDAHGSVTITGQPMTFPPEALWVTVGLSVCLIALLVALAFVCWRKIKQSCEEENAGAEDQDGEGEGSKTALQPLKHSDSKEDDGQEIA

[5] = target: T2, B7-H3 on A498 and JIMT-1 target cells; experiment: cell-based or functional assay; remark: listed apart in the source

T1 sequence (P01732 22-235): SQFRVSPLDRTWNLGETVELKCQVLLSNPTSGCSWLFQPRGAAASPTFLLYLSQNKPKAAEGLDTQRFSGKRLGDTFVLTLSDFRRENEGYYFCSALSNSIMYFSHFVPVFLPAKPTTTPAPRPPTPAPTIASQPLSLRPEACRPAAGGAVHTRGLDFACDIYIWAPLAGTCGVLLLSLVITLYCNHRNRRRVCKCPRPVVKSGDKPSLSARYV

EC50 (read off the curve) [1]: ~2 nM
EC50 (read off the curve) [2]: ~2 nM
EC50 (read off the curve) [3]: ~2 nM
LDH EC50 (pM), A498 cells [5]: 4 pM
LDH EC50 (pM), JIMT-1 cells [5]: 0.4 pM
Luciferase EC50 (pM), JIMT-1 cells [5]: 0.6 pM
B1: B7-H3 mAb 1/CD3 mAb 2/CD8 mAb 1 Tri-Specific Binding Molecule (other)
chain 1: DIQMTQSPSSLSASVGDRVTITCRASQDISNYLNWYQQKPGKAPKLLIYYTSRLHSGVPSRFSGSGSGTDFTLTISSLQPEDIATYYCQQGNTLPPTFGGGTKLEIKGGGSGGGGEVQLVESGGGLVQPGGSLRLSCAASGFTFSTYAMNWVRQAPGKGLEWVGRIRSKYNNYATYYADSVKDRFTISRDDSKNSLYLQMNSLKTEDTAVYYCVRHGNFGNSYVSWFAYWGQGTLVTVSSGGCGGGEVAALEKEVAALEKEVAALEKEVAALEKGGGDKTHTCPPCPAPEAAGGPSVFLFPPKPKDTLMISRTPEVTCVVVDVSHEDPEVKFNWYVDGVEVHNAKTKPREEQYNSTYRVVSVLTVLHQDWLNGKEYKCKVSNKALPAPIEKTISKAKGQPREPQVYTLPPSREEMTKNQVSLWCLVKGFYPSDIAVEWESNGQPENNYKTTPPVLDSDGSFFLYSKLTVDKSRWQQGNVFSCSVMHEALHNHYTQKSLSLSPGK
chain 2: QAVVTQEPSLTVSPGGTVTLTCRSSTGAVTTSNYANWVQQKPGQAPRGLIGGTNKRAPWTPARFSGSLLGGKAALTITGAQAEDEADYYCALWYSNLWVFGGGTKLTVLGGGGSGGGGQVQLVQSGAEVKKPGASVKVSCKASGYTFTSYWMQWVRQAPGQGLEWMGTIYPGDGDTRYTQKFKGRVTITADKSTSTAYMELSSLRSEDTAVYYCARRGIPRLWYFDVWGQGTTVTVSSGGCGGGKVAALKEKVAALKEKVAALKEKVAALKE
heavy: EVQLQQSGAELVKPGASVKLSCTASGFNIKDTYIHFVRQRPEQGLEWIGRIDPANDNTLYASKFQGKATITADTSSNTAYMHLCSLTSGDTAVYYCGRGYGYYVFDHWGQGTTLTVSSASTKGPSVFPLAPSSKSTSGGTAALGCLVKDYFPEPVTVSWNSGALTSGVHTFPAVLQSSGLYSLSSVVTVPSSSLGTQTYICNVNHKPSNTKVDKRVEPKSCDKTHTCPPCPAPEAAGGPSVFLFPPKPKDTLMISRTPEVTCVVVDVSHEDPEVKFNWYVDGVEVHNAKTKPREEQYNSTYRVVSVLTVLHQDWLNGKEYKCKVSNKALPAPIEKTISKAKGQPREPQVYTLPPSREEMTKNQVSLSCAVKGFYPSDIAVEWESNGQPENNYKTTPPVLDSDGSFFLVSKLTVDKSRWQQGNVFSCSVMHEALHNRYTQKSLSLSPGK
light: DVQINQSPSFLAASPGETITINCRTSRSISQYLAWYQEKPGKTNKLLIYSGSTLQSGIPSRFSGSGSGTDFTLTISGLEPEDFAMYYCQQHNENPLTFGAGTKLELRRTVAAPSVFIFPPSDEQLKSGTASVVCLLNNFYPREAKVQWKVDNALQSGNSQESVTEQDSKDSTYSLSSTLTLSKADYEKHKVYACEVTHQGLSSPVTKSFNRGEC
notes: Four different polypeptide chains covalently complexed, with Fc Domain
EC50 (nM) of killing, CD4+ effector cells, JIMT1-luc target cells, E:T 5:1 [4]: 0.0721 nM
EC50 (nM) of killing, CD8+ effector cells, JIMT1-luc target cells, E:T 5:1 [4]: 0.0054 nM
EC50 (nM) of killing, PanT effector cells, JIMT1-luc target cells, E:T 5:1 [4]: 0.0082 nM
